According to IntAct's records for PubMed 21471202:

B1: Low-density lipoprotein receptor-related protein 4 (Homo sapiens), O75096 (parent)
chain: MRRQWGALLLGALLCAHGLASSPECACGRSHFTCAVSALGECTCIPAQWQCDGDNDCGDHSDEDGCILPTCSPLDFHCDNGKCIRRSWVCDGDNDCEDDSDEQDCPPRECEEDEFPCQNGYCIRSLWHCDGDNDCGDNSDEQCDMRKCSDKEFRCSDGSCIAEHWYCDGDTDCKDGSDEENCPSAVPAPPCNLEEFQCAYGRCILDIYHCDGDDDCGDWSDESDCSSHQPCRSGEFMCDSGLCINAGWRCDGDADCDDQSDERNCTTSMCTAEQFRCHSGRCVRLSWRCDGEDDCADNSDEENCENTGSPQCALDQFLCWNGRCIGQRKLCNGVNDCGDNSDESPQQNCRPRTGEENCNVNNGGCAQKCQMVRGAVQCTCHTGYRLTEDGHTCQDVNECAEEGYCSQGCTNSEGAFQCWCETGYELRPDRRSCKALGPEPVLLFANRIDIRQVLPHRSEYTLLLNNLENAIALDFHHRRELVFWSDVTLDRILRANLNGSNVEEVVSTGLESPGGLAVDWVHDKLYWTDSGTSRIEVANLDGAHRKVLLWQNLEKPRAIALHPMEGTIYWTDWGNTPRIEASSMDGSGRRIIADTHLFWPNGLTIDYAGRRMYWVDAKHHVIERANLDGSHRKAVISQGLPHPFAITVFEDSLYWTDWHTKSINSANKFTGKNQEIIRNKLHFPMDIHTLHPQRQPAGKNRCGDNNGGCTHLCLPSGQNYTCACPTGFRKISSHACAQSLDKFLLFARRMDIRRISFDTEDLSDDVIPLADVRSAVALDWDSRDDHVYWTDVSTDTISRAKWDGTGQEVVVDTSLESPAGLAIDWVTNKLYWTDAGTDRIEVANTDGSMRTVLIWENLDRPRDIVVEPMGGYMYWTDWGASPKIERAGMDASGRQVIISSNLTWPNGLAIDYGSQRLYWADAGMKTIEFAGLDGSKRKVLIGSQLPHPFGLTLYGERIYWTDWQTKSIQSADRLTGLDRETLQENLENLMDIHVFHRRRPPVSTPCAMENGGCSHLCLRSPNPSGFSCTCPTGINLLSDGKTCSPGMNSFLIFARRIDIRMVSLDIPYFADVVVPINITMKNTIAIGVDPQEGKVYWSDSTLHRISRANLDGSQHEDIITTGLQTTDGLAVDAIGRKVYWTDTGTNRIEVGNLDGSMRKVLVWQNLDSPRAIVLYHEMGFMYWTDWGENAKLERSGMDGSDRAVLINNNLGWPNGLTVDKASSQLLWADAHTERIEAADLNGANRHTLVSPVQHPYGLTLLDSYIYWTDWQTRSIHRADKGTGSNVILVRSNLPGLMDMQAVDRAQPLGFNKCGSRNGGCSHLCLPRPSGFSCACPTGIQLKGDGKTCDPSPETYLLFSSRGSIRRISLDTSDHTDVHVPVPELNNVISLDYDSVDGKVYYTDVFLDVIRRADLNGSNMETVIGRGLKTTDGLAVDWVARNLYWTDTGRNTIEASRLDGSCRKVLINNSLDEPRAIAVFPRKGYLFWTDWGHIAKIERANLDGSERKVLINTDLGWPNGLTLDYDTRRIYWVDAHLDRIESADLNGKLRQVLVSHVSHPFALTQQDRWIYWTDWQTKSIQRVDKYSGRNKETVLANVEGLMDIIVVSPQRQTGTNACGVNNGGCTHLCFARASDFVCACPDEPDSRPCSLVPGLVPPAPRATGMSEKSPVLPNTPPTTLYSSTTRTRTSLEEVEGRCSERDARLGLCARSNDAVPAAPGEGLHISYAIGGLLSILLILVVIAALMLYRHKKSKFTDPGMGNLTYSNPSYRTSTQEVKIEAIPKPAMYNQLCYKKEGGPDHNYTKEKIKIVEGICLLSGDDAEWDDLKQLRSSRGGLLRDHVCMKTDTVSIQASSGSLDDTETEQLLQEEQSECSSVHTAATPERRGSLPDTGWKHERKLSSESQV

Variants of: B1
Settings: with sost_human SOST

effect of a mutation on the interaction	Variant
decreasing interaction	W1186S
decreasing interaction	R1170W
